The text below walks through data of US20240252606A1 (CHANGCHUN BCHT BIOTECHNOLOGY, published 2024).

This series concerns the molecule itself. Kind of series: native gel electrophoresis, self-assembly.

B1: cysteine-modified norovirus capsid P protein PP-3C (other)
chain: MGKPFSVPILTVEEMTNSRFPIPLEKLFTGPSSAFVVQPQNGRCTTDGVLLGTTQLSPVNICTFRGDVTHIAGCQNYTMNLASQNWNNYDPTEEIPAPLGTPDFVGRIQGVLTQTTRRDGSTRGHKATVSTGSVHFTPKLGSVQFSTDTCNDFETGQNTRFTPVGVVQDCSTTHQNEPQQWVLPDYSGRDSHNVHLAPAVAPTFPGEQLLFFRSTMPGCSGYPNMNLDCLLPQEWVQHFYQESAPAQSDVALLRFVNPDTGRVLFECKLHKSGYVTVAHTGQHDLVIPPNGYFRFDSWVNQFYTLAPMGNGAGRRRAL
notes: self-assembles into dodecamers and tetracosamers
In the case of B1, the binding result was “binds”.

B2: lysine-modified norovirus capsid P protein PP-3K (other)
chain: MGKPFSVPILTVEEMTNSRFPIPLEKLFTGPSSAFVVQPQNGRCTTDGVLLGTTQLSPVNICTFRGDVTHIAGKTQNYTMNLASQNWNNYDPTEEIPAPLGTPDFVGRIQGVLTQTTRRDGSTRGHKATVSTGSVHFTPKLGSVQFSTDTSKNDFETGQNTRFTPVGVVQDGKSTTHQNEPQQWVLPDYSGRDSHNVHLAPAVAPTFPGEQLLFFRSTMPGCSGYPNMNLDCLLPQEWVQHFYQESAPAQSDVALLRFVNPDTGRVLFECKLHKSGYVTVAHTGQHDLVIPPNGYFRFDSWVNQFYTLAPMGNGAGRRRAL
notes: as for B1
Take B2: the binding result is recorded as “binds”.
